The target in experiment [1] is hCFHR4. The experiment in a line: SPR kinetics.
The target in experiment [2] is T1, FHR-4 (coated on plate, C3 convertase assembly assay) (UniProt Q92496 20-331).
T1 chain: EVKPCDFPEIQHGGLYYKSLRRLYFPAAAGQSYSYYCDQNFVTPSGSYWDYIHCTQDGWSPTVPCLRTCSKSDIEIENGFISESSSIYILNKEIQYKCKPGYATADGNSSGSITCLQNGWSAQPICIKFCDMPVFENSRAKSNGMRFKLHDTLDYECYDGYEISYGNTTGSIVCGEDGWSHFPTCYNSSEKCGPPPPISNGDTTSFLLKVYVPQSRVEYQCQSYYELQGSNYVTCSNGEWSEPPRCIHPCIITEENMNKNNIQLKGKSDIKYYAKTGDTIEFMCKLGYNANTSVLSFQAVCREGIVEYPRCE
In words: C3 convertase assembly assay.

The target of experiment [3] is T2, hCFHR4b.
T2 chain: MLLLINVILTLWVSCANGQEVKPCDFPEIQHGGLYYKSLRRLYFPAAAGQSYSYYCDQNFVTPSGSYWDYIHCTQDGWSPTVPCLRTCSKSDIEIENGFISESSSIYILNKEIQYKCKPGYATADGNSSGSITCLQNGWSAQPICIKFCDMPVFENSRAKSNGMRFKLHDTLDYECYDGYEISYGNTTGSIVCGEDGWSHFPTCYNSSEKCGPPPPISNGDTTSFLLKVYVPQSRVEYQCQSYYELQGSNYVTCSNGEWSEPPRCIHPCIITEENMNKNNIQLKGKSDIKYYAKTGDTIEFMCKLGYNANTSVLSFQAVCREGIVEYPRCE
The experiment in a line: SPR kinetics.

Experiment [4] deals with T1, FHR-4 (coated on plate, C3 convertase …). The experiment in a line: C3 convertase assembly assay.

The values that follow come from patent publication US20250289873A1 (published 2025).

Substitutions are numbered along the chain they refer to. Where two headings read alike, the source gives them in different places.

B1: ATX-P-563 (antibody, V domains shown)
VH: QVQLQESGPGLMKPSETLSLTCTVSGGSISSHYWSWIRQPPGKGLEWIGYIFYSGNINYNPSLKSRVTISVDTSKNQFSLKLRSVTTADTAVYYCARDRGGSYSYHFDCWGQGTLVTVSS
VL: DIQMTQSPSSVSASVGDRVTITCRASQSFAGWLAWYQQKPGKAPKLLIYAASTLQSGVPSRFSGSGSGTDFTLTISSLQPEDFATYYCQQANSFPLTFGGGTKVEIKR
As to B1, the Kd (usually a measure of binding affinity in units of concentration) in experiment [1] is 1.05 nM.

B2: ATX-P-566 (antibody, V domains shown)
VH: QVQLQQSGPGLVKPSQTLSLTCAISGDSVSSNSAAWNWIRQSPSRGLEWLGRTYYRSKWFNNYSVSVKSRIAINPDTSKNQFSLQLNSVTPEDTAVYYCARDLGELLDWYFDLWGRGTLVTVSA
VL: EIVLTQSPGTLSLSPGDRATLSCRASQSVRNSYVAWYQQKPGQAPRLLIYGASSRATGIPDRFSGSGSGTDFSLTIGRLEPEDFVVYYCQQYGNSPLTFGGGTKVEIKR
B2 displayed an equilibrium dissociation constant (Kd) in experiment [1] of 3.48 nM. The IC50 (commonly the point on the concentration scale where inhibition reaches its midpoint) in experiment [2] amounted to 3.27 nM.

B3: ATX-P-577 (antibody, V domains shown)
VH: QVQLQESGPGLVKPSGTLSLTCAVSGGSISSSNWWTWVRQPPGKGLEWIGETYHDGSTNYNPSLKSRVTISVDKSKNQFSLKLSSVTAADTAVYYCLEFYFDYWGQGTLVTVSS
VL: DIQMTQSPSSLSASVGDRVTITCRASQDIRNDLGWYQQKPGKVPKRLIYAASSLQSGVPSRFSGSGSGTEFTLTISSLQPEDFASYYCLQYNNYPFTLGPGTKVDIKR
As to B3, in experiment [1], the affinity, expressed as Kd, was 0.665 nM.

B4: ATX-P-595 (antibody, V domains shown)
VH: QVQLQQSGPGLVKPSQTLSLTCAISGDSVSSNSAAWNWIRQSPSRGLEWLGRTYYRSKWFNDYALSVKSRITINPDTSKNQFSLHLNSVTPEDTAVYYCAREPGIVAPGPFDYWGQGTLVTVSS
VL: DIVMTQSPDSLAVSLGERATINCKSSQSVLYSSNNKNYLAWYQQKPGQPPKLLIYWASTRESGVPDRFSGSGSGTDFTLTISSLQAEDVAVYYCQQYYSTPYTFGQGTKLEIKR
Regarding B4, the Kd in experiment [3] and in experiment [1] was 16.9 nM in each case. Also, the IC50 was 5.9 nM in experiment [4] and 5.94 nM in experiment [2].

B5: ATX-P-565 (antibody, V domains shown)
VH: QVQLVESGGGVVQPGRSLRLSCAASGFTFNTYGIHWVRQAPGKGLEWVAVIWHDGSSKNYVDSVTGRFTISRDNSKNTVYLQMNSLRAEDTAVYYCARRGNWNYGFYYYYMDVWGKGTTVTVSS
VL: DIVMTQSPLSLPVTPGEPASISCRSSQRLLHSSGYNYLDWYLQKPGQSPQLLIYLGSSRASGVPDRFSGSGSGTDFTLKISRVEAEDVGVYYCMQGLQTPPTFGQGTKVEIKR
B5 came in with a Kd in experiment [1] of 6.9 nM. That is a single-digit nanomolar value.

B6: ATX-P-564 (antibody, V domains shown)
VH: EVQLVESGGGLVKPGGSLRLSCAASGFTFSSYTMNWVRQAPGKGLEWVSSISSSSSYTYYADSVRGRFTISRDNAKNSLYLQMSSLRAEDTAVYYCARSASIAAGMDVWGKGTTVTVSS
VL: B5 VL with R28S, S33T, Y37F, Q47L, G56A, S58N, G96A, P101Y, V109L
The molecule B6 yielded an equilibrium dissociation constant (Kd) in experiment [1] of 3.56 nM. The molecule also had an IC50 in experiment [2] of 3.94 nM.

B7: ATX-P-587 (antibody, V domains shown)
VH: QVQLQQSGPGLVKPSQTLSLTCAISGDSVSSNSAAWNWIRQSPSRGLEWLGKTYYRSKWYNYYALSVKSRITINPDTSKNQFSLHLNSVTPEDTAVYYCARDGDYYLPSPFDLWGHGTMVTVSS
VL: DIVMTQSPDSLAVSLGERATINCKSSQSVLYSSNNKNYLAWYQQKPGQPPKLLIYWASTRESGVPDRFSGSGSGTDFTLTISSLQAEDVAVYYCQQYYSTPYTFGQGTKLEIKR
Take B7: the Kd in experiment [1] turned out to be 4.26 nM.

B8: ATX-P-578 (antibody, V domains shown)
VH: EVQLVESGGGLVQPGGSLRLSCAASGFTFSRYSMNWVRQAPGKGLEWVSYISSSSSTIFHADSVKGRFTISRDNAKNSLYLQMNSLRDEDTAVYYCARGNWNYYYMDVWGKGTTVTVSS
VL: DIQMTQSPSTLSASVGDRVTISCRASQSVNSWLAWYQQKPGKAPKLLIYKASNLEGGVPSSFSGSGSGTEFTLTISSLQPDDFATYYCQQYDTSWTFGQGTKVEIKR
Take B8: the affinity in experiment [1], expressed as Kd, was 25 nM.

B9: ATX-P-600 (antibody, V domains shown)
VH: EVQLVESGGGLVQPGRSLRLSCAASGFTFDDYAMHWVRQVPGRGLEWVSGISWSGGSIGYADSVKGRFTISRDNSKNSLYLQMNSLRAEDTALYYCTKDREDGYNYGGVFDYWGQGTLVTVSS
VL: EIVLTQSPGTLSLSPGERATLSCRASQNVRGSYLAWYQQKPGQAPRLLIYGASNRATDIPDRFSGSGSGTDFTLTISGLEPEDFVVYYCQQYGSSYTFGQGTKVEIKR
As to B9, the Kd in experiment [3] and in experiment [1] was 7.39 nM each time. Also, the IC50 came to 8.4 nM in experiment [4] and 8.44 nM in experiment [2].

B10: ATX-P-603 (antibody, V domains shown)
VH: QVQLQESGPGLVKPSGTLSLTCAVSGGSISGSHWWSWFRQPPGKGLEWIGEIYHTGSTNKNPSLKSRVTISLDKSKNQFSLRLRSVTDADTAVYYCARDQYTGSPRDAFDIWGQGTMVTVSS
VL: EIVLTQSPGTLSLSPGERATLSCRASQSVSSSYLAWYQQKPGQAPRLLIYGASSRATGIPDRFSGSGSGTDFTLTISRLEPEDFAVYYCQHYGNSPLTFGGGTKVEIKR
On to B10, for which the Kd in experiment [3] and in experiment [1] was 0.917 nM each time. For the same molecule, the IC50 in experiment [4] and in experiment [2] was 7.6 nM each time.

B11: ATX-P-596 (antibody, V domains shown)
VH: EVQLVESGGGLVQPGRSLRLSCAASGFSFDDYAMHWVRQVPGKGLEWVSGISWTGGSVGYADPVKGRFTISRDNAKNSLYLQMNSLRPEDTALYYCAKDMGDGYSRNWPFDYWGQGTLVTVSS
VL: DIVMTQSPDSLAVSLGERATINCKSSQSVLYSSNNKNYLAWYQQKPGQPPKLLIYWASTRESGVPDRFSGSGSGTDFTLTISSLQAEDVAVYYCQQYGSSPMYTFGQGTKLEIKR
On to B11, for which the affinity in experiment [1], expressed as Kd, was 0.225 nM.

B12: ATX-P-582 (antibody, V domains shown)
VH: QVQLQESGPGLVKPSGTLSLTCAVSGGSISISKWWSWVRQPPGKGLEWIGEIYHTGSTNYHPSLKSRVTISVDKSKNQFYLKLNSVTAADTAVYYCARDELRLGELSPSLDIWGQGTMVTVSS
VL: DIQMTQSPSSLSASVGDRVTITCRASQNINNYLNWFRQKPGKAPKLLIFAASSLQSGVPSRFSGSESGTDFTLTISSLQPEDFATYYCQQSYSTPLTFGGGTKVEIKR
The molecule B12 returned a Kd in experiment [1] of 10 nM. Against the preceding molecule, the Kd is about 44-fold higher.

B13: ATX-P-568 (antibody, V domains shown)
VH: EVQLVESGGGLVQPGGSLRLSCAASGFPFSSYVMSWVRQAPGKGLEWVSVISVSGGSTFYADSVRGRFTISRDNSKNTLYLQVYSLRAEDTAVYYCAKDGLAVAGFDHWGQGTLVTVSS
VL: DIQMTQSPSTLSASVGDRVTITCRASQSISTWLAWYQQKPGKAPKLLIHKASGLESGVPSRFSGSGSGTEFTLTISSLQPDDFATYYCQQYNSFSLIFGGGTRVEIKR
In the case of B13, the Kd in experiment [1] was 1.62 nM. This Kd lies about 6.2-fold lower than the previous one.

B14: ATX-P-581 (antibody, V domains shown)
VH: QVQLQQSGPGLVKPSQTLSLTCAISGDSVSSNNAAWNWIRQSPSRGLEWLGRTYYRSKWYNAYAVSVKSRIIINPDTSRNQFSLQLNSVTPEDTAVYYCAREGGYIYGLDQWGQGTLVTVSS
VL: DIQMTQSPSSVSASVGDRVTITCRASQGVNNWLAWYQQKPGKAPKLLIHAASSLLSGVPSRFSGSGSGTDFTLTITSLQPEDFATYYCQQANSFPITFGQGTRLEIKR
As to B14, in experiment [1], the Kd is 9.65 nM.

B15: ATX-P-576 (antibody, V domains shown)
VH: EVQLVESGGGLVQPGRSLRLSCTASGFTFDDYEMHWVRQAPGKGLEWVSDISRNSGRIGYADSVKGRFTISRDNAKNSLYLQMNSLRAEDTALYYCAKDIWGSGYFDYWGQGILVTVSS
VL: B14 VL with A25T, V29I, N30R, H49Y, L55Q, S56T, V58G, T76S, I96Y, R103K
For B15, the Kd in experiment [1] came out at 0.9 nM.

B16: ATX-P-573 (antibody, V domains shown)
VH: B14 VH with N33S, W59L, N61S, A62D, I72T, I106T, L109Y, Q111Y
VL: B1 VL with S28G, F29I, A30S, G31S, L46V, T53S, L96P, G100P, E105D
Consider B16, for which binding in experiment [1] was put at a Kd of 23 nM.

B17: ATX-P-591 (antibody, V domains shown)
VH: QVQLVQSGAEVKKPGASVKVSCKASGYTFTSYGISWVRQAPGQGLEWMGWISAYNGNTNYAQKLQGRVTMTTDTSTSTAYMELRSLRSDDTAIYYCTRDLRGTAFDYWGQGTPVTVSS
VL: DIQMTQSPSSLSASVGDRVTITCRASQSINTYLNWYQQKPGKAPKLLIYAASSLQSGVPSRFSGSGSGTDFTLTISSLQPEDFATYSCQHSFTTPFTFGPGTKLEIKR
Consider B17, for which the Kd in experiment [1] came out at 117 nM.

B18: ATX-P-594 (antibody, V domains shown)
VH: QVQLQQSGPGLVKPSQTLSLTCAISGDSVSSNSASWNWIRQSPSRGLEWLGTTYYRSKWFNVYAVSVKSRITINPDTSKNQFSLHLNSVTPEDTAIYFCTRDRGDLLHWYFDLWGRGTLVTVSS
VL: EIVLTQSPGTLSLSPGERATLSCRASQSVSSSYLAWYQQKPGQSPRLLIYGASSRATGIPDRFSGSGSGTDFTLTISRLEPEDFAVYYCQQYGRSVTFGGGTKLEIKR
Turning to B18, the Kd in experiment [3] and in experiment [1] was 0.326 nM throughout. Also, the IC50 came to 4 nM in experiment [4] and 4.09 nM in experiment [2].

B19: ATX-P-604 (antibody, V domains shown)
VH: QVQLQQSGPGLVKPTQTLSLTCAISGDSVSSNSAAWNWIRQSPSRGLEWLGRTYYRSKWFNGYAVSVKSRITINPDASKNQFSLHLKSVTDEDTAVYYCATDRGELLHWYFDLWGRGTLVTVSS
VL: B18 VL with G9D, S28T, V29I, S30R, Q39L, S44A, T75S, V96I, T97I, L104V
Regarding B19, the affinity in experiment [1], expressed as Kd, was 0.222 nM.
